Data on two molecules can be found in PMC5540134 (Biochemistry, 2017).

What is called Kd is a measure of binding affinity in units of concentration. Higher therefore signals weaker binding. For orientation: stoichiometry N means a count of units in the complex or per binding partner.

The assay concerns the target T1, WT-UreE dimer (Helicobacter pylori urease accessory protein UreE) (Helicobacter pylori, UniProt Q09064 1-170).
T1 sequence: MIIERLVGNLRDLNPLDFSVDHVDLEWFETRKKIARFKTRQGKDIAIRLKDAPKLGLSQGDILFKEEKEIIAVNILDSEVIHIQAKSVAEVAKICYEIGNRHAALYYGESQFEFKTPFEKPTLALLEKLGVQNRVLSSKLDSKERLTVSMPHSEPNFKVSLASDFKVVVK
Put plainly: ITC. (ITC needs no label: the signal is the heat of the interaction.)

B1: WT-HypA (Helicobacter pylori hydrogenase maturation protein HypA, unmodified N-terminus) (natural protein)
chain: MHEYSVVSSLIALCEEHAKKNQAHKIERVVVGIGERSAMDKSLFVSAFETFREESLVCKDAILDIVDEKVELECKDCSHVFKPNALDYGVCEKCHSKNVIITQGNEMRLLSLEMLAE
B1: binding was put at a Kd of 0.96 ± 0.09 µM, the dH was -26.23 ± 0.251 kJ/mol and the “stoichiometry N” value turned out to be 1.5 ± 0.1 HypA per UreE dimer.

B2: L2*-HypA (Met1_His2insLeu variant of Helicobacter pylori HypA) (natural protein)
chain: MLHEYSVVSSLIALCEEHAKKNQAHKIERVVVGIGERSAMDKSLFVSAFETFREESLVCKDAILDIVDEKVELECKDCSHVFKPNALDYGVCEKCHSKNVIITQGNEMRLLSLEMLAE
As to B2, the Kd stood at 0.69 ± 0.11 µM, the dH was -16.2 ± 0.251 kJ/mol and the “stoichiometry N” value turned out to be 1.6 ± 0.2 HypA per UreE dimer.
